Test results published in the supplement of paper PMC9170038.

Tested on: K4 kissing-loop RNA reporter
Test: apparent KD of K4 kissing-loop reporter; higher = weaker reporter binding
Conditions: Eterna round: R107
Method: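 RNA-MaP round R107: designed RNA switches with theophylline, tryptophan, arginine or FMN aptamers are transcribed on-chip within common flanks. They are titrated with a labelled K4 kissing-loop RNA reporter in RNA-MaP buffer (100 mM Tris pH 7.5, 80 mM KCl, 4 mM MgCl2), without ligand or with the indicated ligand. Median apparent KD per design.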

[1] = input ligand: theophylline 20 uM
[2] = input ligand: tryptophan 2.4 mM
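Further: bound reporter read as fluorescence of individual clusters on recovered sequencing chips by microscopy, with normalized cluster intensities fitted with a binding model.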

Row | Sequence | apparent KD of K4 kissing-loop reporter (input ligand: FMN 200 uM) [nM] | apparent KD of K4 kissing-loop reporter (input ligand: arginine 13.2 mM) [nM] | apparent KD of K4 kissing-loop reporter (input ligand: none) [nM] | apparent KD of K4 kissing-loop reporter [1] [nM] | apparent KD of K4 kissing-loop reporter [2] [nM]
1 | GUGAAGGAGCUGCAGUGAUGUUGCAGAGACUAGGAUAUCAGGAAACUGAGAAGGAGUCAACUCCUUCACCUAGACAACAUCACUA [[F]''-[K1]-[K2]-[F1]-[F2]-[F2]'-[F1]'-[K]'_Design2] | 148 | 151 | 128 | 269 | 187
2 | GCUAUGGUAGGAAGGAGCGCUGCCUUGUUUUUACGAGUGAUGUUCGGAAGCAGGGCGUUAAAGCAGGUAGGUCGCCUACUAUAGC [Arginine B K4 22] | 220 | 135 | 152 | 147 | 146
3 | AGUGCCGAGUGUGAUACCAGCUUCAUGCAGUGAUGUUGCACACGAGUGAUGUUCGUCCGAGGCCCUUGGCAGCGCAGUCGCUCGA [Same State Theophylline B Gf 30] | 751 | 807 | 885 | 711 | 670
4 | UUUUAAUAAAAGGAUACCAGUACAAAUAAAGUACAUUAAUAGUAGAGUGAUGUUCUAAAGUACCCUUGGCAGCUUAGAGUAAGUU [#17 K4 Theophylline B Exclusion] | 120 | 253 | 160 | 228 | 85.1
5 | ACGCUAGCUACCGAAAGGUAGCUAGCGAGUGAGGAUAUGUGGAAACACAGAAGGCACAGCGCAGUGAUGUUGUGCGGCGGAAGCG [whbob_SS_FMNA__2th168] | 604 | 221 | 631 | 664 | 473
6 | GUGCGCGCGGCGGCCGCCACUCGCAUGAGAGUGAUGUUCUCACCGUGACCGCAAGGUCGCGGUGUGAGGACCGGGCCGGGCUGCG [#2 Same State - Tryptophan B Attempt #25 (HarryS)] | 74.3 | 93.5 | 217 | 464 | 297
7 | GAUGGUCGAGAAGGAUAUGUGACUACCAGAAGGAAAUUCAGUGAUGUUGAUUGUCGCGAGCAGGAGACAGAAGGUCUCAGACAUA [theeternabot_exclusion_KL_FMN_B_5] | 506 | 265 | 330 | 351 | 276
8 | GAUUUAGAGGCGGCCGCCACUAGUGAUGUUAGUGAUGUUUGAUAGGGAAUAUAUCUGCGAGUAGAUAGGACCGGGCCAGAUGGAG [eccvbmullin] | 192 | 128 | 150 | 168 | 151
9 | CGCAGUGAUGUUGCGAGUAGCUACAGGGAAGGAGCGUGCUAGAGCACAGGUAGGUCGCCCUCGGGCAGUGAUGUUGCCAAAGGUU [Exclusion ARginine A GF 16] | 77.1 | 85.2 | 79.8 | 80.6 | 68.3
10 | CCCGUGGGUUUGAGAGGGCUUGUGGGAAGUAAGGAUAUUUAGGGAGAAAGAAGGUACUAUAGAAUAUAGUGAUGUUAUAUAUGGG [#06 K4 FMN A Same State] | 238 | 218 | 232 | 126 | 170
11 | AGAGUUAUGAGAGGAUAUGCGGCUAGUACUCAAAGAGUACUAGCAGCGGAGUGAUGUUCUGUGAAAGCAGAAGGUUCAUAACUCA [#07 K4 FMN B Same State] | 159 | 1350 | 1100 | 907 | 1350
12 | GUCCACACUGCAGGAUAUGGAGGUAUAGCGAGGGAGUGUGGAAGCACACCUCUGGCAGUGAUGUUGCCAGAAGGGCGGUGCGGCG [Masodionra] | 118 | 103 | 119 | 90.3 | 93.2
13 | UAAUAAAUUCCAGCUGUAUCACUCUUCGAAGGAGCGGACGAAAGUCCAGGUAGGUCGCGAAGAGUGAUGUUCUUUGCGGCGCUGG [Omei KL Arginine A Exc A v6] | 82.3 | 68.4 | 94.8 | 76.6 | 57.1
14 | ACGUAGUUCUAGGAUACCAGCCAAGGAGCGCAGGACAAAAGUCCUGCCGCCAGUGAUGUUGGCCCUUGGCAGCCUAGAACUACGA [Omei KL Theo B Exc B v1] | 193 | 162 | 145 | 165 | 160
15 | ACCUACGAUCACAAUAGUGAUUGUAGGAACUAGGAUAUGCUGAAAAGCAGAAGGAGUGAUGUUCCGUCAUGAAUAACAUGACAAA [FmnAX 5 #OpenEnded #K4Late #CoaxialStacking] | 251 | 525 | 495 | 594 | 336
16 | CCUAUCUCAUACGAUACCAGUGAUUAACCAGUGAUGUUGGAAUAACCAAGGAAUAUUUUUCACCCUUGGCAGCGUAUGGGAUAGG [Ex Theophylline B K4 26] | 78 | 38 | 59.1 | 61.9 | 49.6
17 | UGGGUUGGAAGUGAUGUUUCUCUAAGUGAUACCAGACAAAAGAAAGUCCCUUGGCAGCACAAUGAUGCCAAGGAAACGGCAUGAU [#16 K4 Theophylline A Same State] | 229 | 244 | 260 | 250 | 195
18 | CCCGCGUCGUUAGUGAUGUUGACUUCUGAUACCAGUCGCAGGUAGGACCCUUGGCAGCAGCAGUUUUGUUAUAUGUAGGAUCCAG [theeternabot_exclusion_KL_Theo_A_36] | 727 | 201 | 717 | 445 | 490
19 | AAAAUAAAUCAGUGAUGUUGGUAUCUGGAUACCAGCGAUAAUAGUCGCCCUUGGCAGCCAUGGACGUACAAAAUAAGUACGUCCU [MatMod 19 - Jieux - Same State - Theophylline A] | 221 | 117 | 183 | 170 | 160
20 | GAUUGGCGGACGGCCGCCACUCGGACGAGUCACAGUGAUGUUGUGGUUUGCCAGUCGACUUCAUCGAGGACCGGGUUUGUCGGGC [Exclusion Tryptophan B GF 21] | 592 | 407 | 497 | 405 | 349
21 | AGAGUUAAUUAGUCAUUUUUCACAUUAAGUCAGGAUAUCGUAUUUUCGAGAAGGGACACAUGCUAGUGAUGUUAGCUAUUUCUCA [JR_Nu_ExcFMNA_Sub021] | 63.6 | 93.9 | 68.3 | 105 | 56.9
